# Patent publication US20240167070
# T1: model peptide 3, AIYRRGRLYRRDHV
# T1 chain: AIYRRGRLYRRDHV
# T2: model peptide 1, AIYRRGRLYRRNHV
# T2 chain: AIYRRGRLYRRNHV
# T3: model peptide 2, …(OH)HV
# T3 chain: AIYRRGRLYRRXHV
# T4: model peptide 4, AIYRRGRLYRRNSL
# T4 chain: AIYRRGRLYRRNSL
# T5: model peptide 5, …(OH)SL
# T5 chain: AIYRRGRLYRRXSL
# T6: model peptide 6, AIYRRGRLYRRDSL
# T6 chain: AIYRRGRLYRRDSL
# B1: butelase-1 (protein)
# chain: VEGTRWAVLVAGSKGYVNYRHQADVCHAYQILKKGGLKDENIIVFMYDDIAYNESNPHPGVIINHPYGSDVYKGVPKDYVGEDINPPNFYAVLLANKSALTGTGSGKVLDSGPNDHVFIYYTDHGGAGVLGMPSKPYIAASDLNDVLKKKHASGTYKSIVFYVESCESGSMFDGLLPEDHNIYVMGASDTGESSWVTYCPLQHPSPPPEYDVCVGDLFSVAWLEDCDVHNLQTETFQQQYEVVKNKTIVALIEDGTHVVQYGDVGLSKQTLFVYMGTDPAN
# B2: VyPAL2 (protein)
# chain: DSIGTRWAVLIAGSKGYHNYRHQADVCHMYQILRKGGVKDENIIVFMYDDIAYNESNPFPGIIINKPGGENVYKGVPKDYTGEDINNVNFLAAILGNKSAIIGGSGKVLDTSPNDHIFIYYADHGAPGKIGMPSKPYLYADDLVDTLKQKAATGTYKSMVFYVEACNAGSMFEGLLPEGTNIYAMAASNSTEGSWITYCPGTPDFPPEFDVCLGDLWSITFLEDCDAHNLRTETVHQQFELVKKKIAYASTVSQYGDIPISKDSLSVYM
# Columns and labels:
# [1] = molecular target: T1, model peptide 3, AIYRRGRLYRRDHV
# [2] = molecular target: T2, model peptide 1, AIYRRGRLYRRNHV
# model peptide 2, …(OH)HV = molecular target: T3, model peptide 2, …(OH)HV
# [3] = molecular target: T4, model peptide 4, AIYRRGRLYRRNSL
# model peptide 5, …(OH)SL = molecular target: T5, model peptide 5, …(OH)SL
# [4] = molecular target: T6, model peptide 6, AIYRRGRLYRRDSL
Protein,Km [1] [µM],Km [2] [µM],"Km (model peptide 2, …(OH)HV) [µM]",Km [3] [µM],"Km (model peptide 5, …(OH)SL) [µM]",Km [4] [µM]
B1,630,67.5,98.8,,,
B2,,,,42.5,120,2070
